In patent publication US20220412967A1, “METHOD FOR CAPTURING CANDIDATE SUBSTANCE THAT CAN BIND TO COMPLEX OF MR1 PROTEIN AND BETA2 MICROGLOBULIN PROTEIN, METHOD FOR PRODUCING CANDIDATE SUBSTANCE THAT CAN BIND TO COMPLEX OF MR1 PROTEIN AND BETA2 MICROGLOBULIN PROTEIN, AND METHOD FOR PRODUCING LIGAND CANDIDATE SUBSTANCE FOR MAIT CELL” (OSAKA UNIVERSITY, priority 2019, published 2022):
Values belong to the molecule of their own block, whether it stands above or below them.

Key:
[1] = target: T1, complex of soluble mMR1A, soluble mβ2m and Ac6FP (Mus musculus, UniProt Q8HWB0); experiment: Thermodynamic stability of the complex (Tycho NT.6, F350/F330, 37 to 95° C.); assay type: physicochemical; conditions: for melting point (inflection point of curve) of the complex: FIG. 1B
T1 construct: made in house
Excerpt: When a MR1 protein, a β2 protein, and Ac6FP form a complex to form a normal folding, tryptophan in the protein can be measured at an absorbance of 330 nm. On the other hand, when the complex is heat treated and the complex is denatured, tryptophan in the protein is exposed by the thermal denaturation, and the tryptophan can be measured at an absorbance of 350 nm.
After mixing the soluble mMR1A and the soluble mβ2m obtained in Example 1 (1), Ac6FP (Cat. No.: 11.418, manufactured by Schircks Laboratories Co., Ltd.) was further added to the obtained mixed solution to form the complex in a buffer solution (reaction system of complex). The composition of the buffer was as follows: 100 mmol/l Tris-HCl (pH 8.1), 2 mmol/l EDTA (pH 8.1), 400 mmol/l L-Arginine, and 5 mol/1 Urea, and the pH was set to 8.1. In the reaction system of 250 ml of complex, the concentration of the soluble mMR1A was 30 μg/ml (total amount: 7.5 mg), the concentration of the soluble mβ2m was 30 μg/ml (total amount: 7.5 mg), and the concentration of Ac6FP was 8 μg/ml (total amount: 2 mg). The reaction temperature of the reaction system of the complex was set at 4° C., and the reaction time was set at 9 hours.
Sodium cyanoborohydride (NaBH3CN) was added to the obtained complex (0.01 mg/ml), so as to have a predetermined concentration (0, 0.005, 0.05, 0.5, or 5 mmol/1) and subjected to the reduction treatment at 4° C. for 5 minutes. Note that the pH in the reaction solution of the reduction reaction was set to about 7.2.
8 to 10 μl of a sample containing the complex after the reduction treatment was collected in a capillary and set to Tycho™ NT.6. The temperature was then increased to 37 to 95° C., and the thermodynamic stability of the complex was calculated from the melting point (an inflection point of curve).
FIGS. 1A and 1B are graphs of the thermodynamic stability of the complex. In FIGS. 1A and 1B, the horizontal axis indicates the temperature, and the vertical axis indicates the ratio of the absorbance at 350 nm (F350) to the absorbance at 330 nm (F330) (F350/F330). […]

[2] = target: T2, soluble murine MR1 protein isoform A (mouse, UniProt Q8HWB0 19-288); experiment: refolding of E. coli proteins with the small-molecule ligand Ac6FP; complex then purified by anion exchange and gel filtration chromatography
T2 construct: also called soluble mMR1A; mMR1
Protocol: After the dialysis, the obtained sample was subjected to anion exchange chromatography under the purification condition 1 below to purify a crude purified product including the complex. After the start of the purification, the resultant was fractionated at 1 ml/fraction, and five fractions between 6 to 7 minutes from the start of purification were collected as fractions of the crude purified product.
Analytical instrument: AKTA pure25 (manufactured by GE Healthcare) Column: POROS™ HQ (manufactured by Applied Biosystems) [0108] […] 0 min: (A:B=100:0) [0111] 7.9 min: (A:B=50:50) Flow rate: 5 ml/min Fractionation volume: 1 ml/fraction
The obtained composition was then subjected to gel filtration chromatography under the purification condition 2 below to purify the complex from the crude purified product. After the start of the purification, the resultant was fractionated at 0.5 ml/fraction, and 4 fractions between 13 and 15 minutes from the start of purification were collected as a fraction containing the complex.

T2 sequence (Q8HWB0 19-288): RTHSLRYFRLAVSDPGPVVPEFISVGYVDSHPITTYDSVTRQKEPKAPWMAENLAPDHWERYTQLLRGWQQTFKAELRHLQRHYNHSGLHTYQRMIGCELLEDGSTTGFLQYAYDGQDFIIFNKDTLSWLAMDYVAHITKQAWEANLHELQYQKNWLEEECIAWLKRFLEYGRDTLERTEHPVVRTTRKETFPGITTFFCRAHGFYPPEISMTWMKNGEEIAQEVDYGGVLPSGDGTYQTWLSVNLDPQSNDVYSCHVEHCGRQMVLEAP

Molecule: complex: complex formed from soluble mMR1A (SEQ ID NO: 10), soluble mβ2m (SEQ ID NO: 14) and the ligand Ac6FP
- melting point (inflection point of curve) of the complex ([1]; control not subjected to the reduction treatment (0 mmol/l NaBH3CN)): 72.2 °C
- melting point of the complex versus control not subjected to the reduction treatment ([1]; reduction treatment with NaBH3CN (0.005 to 5 mmol/l), FIG. 1A): increased
- melting point (inflection point of curve) of the complex ([1]; treated with 5 mmol/l of sodium cyanoborohydride, 4° C., 5 minutes, pH about 7.2): 73.9 °C

- binding result [2]: binds
B1: soluble mouse β2 microglobulin protein (other)
b2m: IQKTPQIQVYSRHPPENGKPNILNCYVTQFHPPHIEIQMLKNGKKIPKVEMSDMSFSKDWSFYILAHTEFTPTETDTYACRVKHASMAEPKTVYWDRDM
notes: Recombinant from Escherichia coli; also called soluble mβ2m
